Reference: patent US20250009799A1

Biological target: SH2D3A peptide on HLA-A*02:01 (human)
Test: T2/peptide TDCC potency screen with TCR2-T-IL12 cells, peptide titration; reference: DCAF4L2 target peptide; full-length, on cells
Conditions: chains Valpha:Vbeta

EC50 of peptide relative to the DCAF4L2 target peptide: 87 fold
B1: TCR2 (protein)
chain 1: EDQVTQSPEALRLQEGESSSLNCSYTVSGLRGLFWYRQDPGKGPEFLFTLYSAGEEKEKERLKATLTKKESFLHITAPKPEDSATYLCAVQAWGGGSQGNLIFGKGTKLSVKP
chain 2: DSGVTQTPKHLITATGQRVTLRCSPRSGDLSVYWYQQSLDQGLQFLIQYYNGEERAKGNILERFSAQQFPDLHSELNLSSLELGDSALYFCASSAGDRGYEQYFGPGTRLTVT
